Laboratory results from patent US20090325867A1, “RECEPTOR-SPECIFIC TUMOUR NECROSIS FACTOR-RELATED APOPTOSIS-INDUCING LIGAND (TRAIL) VARIANTS” (MEDICAL RESEARCH COUNCIL, priority 2005, published 2009).
“Also recorded” adds a separate entry of the source.

B1: HGS-ETR2 (antibody, INN chains, looked up, V domains shown)
VH: EVQLVQSGGGVERPGGSLRLSCAASGFTFDDYGMSWVRQAPGKGLEWVSGINWNGGSTGYADSVKGRVTISRDNAKNSLYLQMNSLRAEDTAVYYCAKILGAGRGWYFDLWGKGTTVTVSS
VL: SSELTQDPAVSVALGQTVRITCQGDSLRSYYASWYQQKPGQAPVLVIYGKNNRPSGIPDRFSGSSSGNTASLTITGAQAEDEADYYCNSRDSSGNHVVFGGGTKLTVL
B2: TRAIL.R1-5: 6His TRAIL 95-281 with 193Ser, 199Val, 201Arg, 213Trp and 215Asp (protein)
chain: TSEETISTVQEKQQNISPLVRERGPQRVAAHITGTRGRSNTLSSPNSKNEKALGRKINSWESSRSGHSFLSNLHLRNGELVIHEKGFYYIYSQTYFRFSEEIKEVTRNDKQMVQYIYKWTDYPDPILLMKSARNSCWSKDAEYGLYSIYQGGIFELKENDRIFVSVTNEHLIDMDHEASFFGAFLVG
modifications: biotin (site not stated) in the DISC analysis only; not biotinylated in the apoptosis assays
notes: 6His TRAIL 95-281 with 193Ser, 199Val, 201Arg, 213Trp and 215Asp

Legend:
Jurkat cells = experiment: Apoptosis by phosphatidylserine (PS) externalization in Jurkat cells; format: cell-based; conditions: for inhibition of induced apoptosis by TRAIL-R1 blocking Ab: 30 min pre-incubation with Ab (5 μg ml^−1); for ability to induce apoptosis in Jurkat cells (in words): PS externalization, compared with wt TRAIL
Experimental: Cells were also exposed to HGS-ETR1 or HGSETR2 (1 μg ml^−1). C: Ramos or Jurkat cells were pre-incubated for 30 min either alone or with TRAIL-R1 blocking Ab or TRAIL-R2 neutralizing Ab (5 μg ml^−1). […] D: Ramos and Jurkat cells were exposed to wt TRAIL or TRAIL mutants as described above and processing of caspase-3 and -8 determined by Western blot analysis. The asterisk indicates a non-specific band. The lower panel of the blot for detection of the caspase-8 p18 subunit was exposed for twice as long as the upper panel. Apoptosis was assessed by phosphatidylserine externalization and results expressed as the Means±SEM of at least 3 separate determinations. […]
(§1) Apoptosis was quantified by phosphatidylserine (PS) externalization in the presence of propidium iodide as described (MacFarlane et al., 2002 ibid.). Samples for Western blot analysis were prepared and caspase processing detected as described (Inoue et al., 2004 ibid.; MacFarlane et al., 2005 ibid.).
(§2) Ramos and Jurkat T cells (clone E6-1) were cultured as described (MacFarlane et al, 2005 ibid.). The breast tumour cell line, MCF-7 (clone F43) was cultured as described previously (MacFarlane et al., 2000 J. Cell Biol. 148, 1239-1254). Cells were cultured for either 4 h (Ramos and Jurkat) or 6 h (MCF-7) with His-TRAIL (MacFarlane et al, 1997 J Biol Chem 272, 25417-25420), HGS-ETR1 or HGS-ETR2 (Human Genome Sciences), or a mutant form of His-TRAIL (MacFarlane et al, 2005 ibid.). Samples were analyzed for apoptosis, Western blotting, or TRAIL DISC activation as described (MacFarlane et al, 2005 ibid.; MacFarlane et al. 2002 Oncogene 21, 6809-6818). Mutants of His-TRAIL (residues 95-281) were generated using the Quik-Change site-directed mutagenesis kit (Stratagene, Calif.), confirmed by DNA sequencing, expressed in E. coli and purified as described (MacFarlane et al, 1997 ibid.). For siRNA targeting of TRAIL-R1/-R2, MCF-7 cells were seeded into six-well plates immediately prior to effectene-mediated RNAi transfection with either a negative control siRNA (30 nM, Ambion, #4611), or preannealed siRNA oligonucleotides for TRAIL-R1 or TRAIL-R2 (30 nM, Ambion), with the sequence and validity described (Ren et al, 2004 Mol. Biol. Cell vol 15 pp 5064-5074). After 40 h of transfection the cells were collected and total TRAIL-R1 or TRAIL-R2 levels assessed. Where indicated, RNAi transfected MCF-7 cells were either left untreated or exposed to wt-TRAIL and apoptosis assessed by the extent of Bax activation, determined using the conformation specific Bax MAb, clone 3 (Dewson et al, 2003 Oncogene vol 22 pp 2643-54).

primary CLL cells = experiment: Apoptosis in freshly isolated CLL cells after depsipeptide; format: cell-based, human; conditions: depsipeptide 10 nM 16 h, then 6 h ligand or antibody, FIG. 2C
Experimental: After exposure of the cells for 30 min, DISC complexes were isolated and analyzed for the indicated proteins by Western blotting. To provide an unstimulated receptor control (u/s), biotinylated wt or mutant TRAIL was added to lysate from untreated cells. C: Freshly isolated cells from patients with CLL were incubated for 16 h either alone or in the presence of depsipeptide (10 nM). […] The different symbols used indicate data from six individual patients and the solid line indicates the Mean.
Ramos, an Epstein-Barr virus-negative Burkitt's lymphoma cell line, and Jurkat T cells (clone E6-1) were cultured as described (MacFarlane et al (2005 Cell Death and Differentiation vol 12 pages 773-782)). Blood samples were obtained from CLL patients, with patient consent and local ethical committee approval and CLL cells purified as described (MacFarlane et al (2002 Oncogene 21, 6809-6818). Cells were incubated for 16 h with depsipeptide (10 nM), provided by Dr. E. Sausville (NCI, USA). Cells were then cultured for a further 6 h with either HGSETR1 or HGS-ETR2, agonistic mAbs to TRAIL-R1 or -R2, respectively (Human Genome Sciences, Rockville, Md.), His-TRAIL-LE (a recombinant TRAIL with low endotoxin—Alexis Corporation, Nottingham, UK), His-TRAIL, a similar form of human recombinant TRAIL (MacFarlane et al (1997 J Biol Chem 272, 25417-25420)) but not further purified to reduce endotoxin levels or a mutant form of His-TRAIL as described (MacFarlane et al., 2005 ibid.). Cell lines were also pre-incubated for 30 min with a TRAIL-R1 blocking Ab and a TRAIL-R2 neutralizing Ab from Alexis and R&D systems, respectively, prior to exposure to TRAIL. Freshly isolated cells from patients with MCL were isolated, purified and incubated with different forms of TRAIL as described above for CLL cells. Samples were either analyzed immediately for apoptosis or stored at −80° C. for subsequent Western blotting. Other methods and reagents were as described (Inoue (2004 Cell Death Differ 11 Suppl 2, S193-206); MacFarlane et al., 2005 ibid).
as §1

[1] = target: TRAIL receptor 2 (TRAIL-R2) (Homo sapiens (Human)) (UniProt O14763)
Ramos cells = experiment: Caspase-8 and -3 processing by Western blot in Ramos cells; format: cell-based; conditions: FIG. 1D
Experimental: Cells were also exposed to HGS-ETR1 or HGSETR2 (1 μg ml^−1). C: Ramos or Jurkat cells were pre-incubated for 30 min either alone or with TRAIL-R1 blocking Ab or TRAIL-R2 neutralizing Ab (5 μg ml^−1). […] D: Ramos and Jurkat cells were exposed to wt TRAIL or TRAIL mutants as described above and processing of caspase-3 and -8 determined by Western blot analysis. The asterisk indicates a non-specific band. The lower panel of the blot for detection of the caspase-8 p18 subunit was exposed for twice as long as the upper panel. Apoptosis was assessed by phosphatidylserine externalization and results expressed as the Means±SEM of at least 3 separate determinations.
as §1
To confirm that the mutants were inducing apoptosis, we examined their effects on the processing of caspase-8, the apical caspase in death receptor-induced apoptosis and caspase-3, an effector caspase.

[2] = target: T1, MCF-7 cells (Homo sapiens); experiment: TRAIL DISC activation in MCF-7 cells; format: cell-based; conditions: FIG. 5B
T1 construct: the breast tumour cell line MCF-7 signals to apoptosis via TRAIL-R1; endogenous in cells; host or cells: MCF-7 (clone F43)
Experimental: as §2, with “For siRNA targeting of TRAIL-R1/-R2, MCF-7 cells were seeded into six-well plates immediately prior to effectene-mediated RNAi transfection with either a negative control siRNA (30 nM, Ambion, #4611), or preannealed siRNA oligonucleotides for TRAIL-R1 or TRAIL-R2 (30 nM, Ambion), with the sequence and validity described (Ren et al, 2004 Mol. Biol. Cell vol 15 pp 5064-5074).” left out
Apoptosis was quantified by measuring the processing of Caspase-8, Caspase-7 and PARP by Western blot analysis. […]

| Molecule | inhibition of induced apoptosis by TRAIL-R1 blocking Ab (Jurkat cells) | ability to induce apoptosis in Jurkat cells (in words) (Jurkat cells) | sensitization of CLL cells to induced apoptosis by depsipeptide (primary CLL cells) | apoptosis of primary MCL cells after depsipeptide (5 nM, 16 h) [1] | processing of caspase-8 and caspase-3 (Ramos cells) | recruitment and processing of Caspase-8 at the DISC [2] | concentration-response of apoptosis compared with wt TRAIL (Jurkat cells; 4 h, FIG. 1A) | % PS+ cells, Jurkat (Jurkat cells; 4 h exposure, 500 ng ml^−, Mean ± SEM of at least three determinations) |
| --- | --- | --- | --- | --- | --- | --- | --- | --- |
| B1 | not | potently induced apoptosis | not | 38.3% | not |  |  |  |
| B2 | blocked | lost much of its activity; also recorded: low levels of apoptosis | sensitized CLL cells |  | induced the processing | resulted in recruitment and processing Caspase-8 at the DISC | much less active than wt TRAIL | 20.0 ± 2.3% |
